Measured values reported in paper PMC6894278, “Enzymatic synthesis of L-fucose from L-fuculose using a fucose isomerase from Raoultella sp. and the biochemical and structural analyses of the enzyme” (Biotechnology for Biofuels, 2019).
One block for each molecule: values may come before it.

Tests used:
[1] = molecular target: L-fucose isomerase from Raoultella sp. KDH14 (RdFucI) (Raoultella sp. KDH14); assay: SEC; analytical size-exclusion chromatography, Superdex 200 10/300 GL, 10 mM Tris-HCl, 200 mM NaCl, pH 8.0; calibrated with standard proteins
[2] = molecular target: L-fucose isomerase from Raoultella sp. KDH14 (RdFucI) (Raoultella sp. KDH14); assay: crystal structure; six subunits in the asymmetric unit; crystals grown in 0.1 M HEPES pH 7.5, 20% (w/v) PEG 10,000 at 20 °C; also soaked with 10 mM Mn2+
[3] = substrate: O=C(CO)[C@H](O)[C@H](O)CO; assay: isomerase kinetics, D-ribulose to D-arabinose; assay type: biochemical, Klebsiella planticola; settings: 1 mM MnCl2 (general assay); pH and temperature of the kinetics not stated in main text; pH 10.0; 40.0 °C
Experimental: isomerase kinetics, D-ribulose to D-arabinose on RdFucI | Kinetic parameters were determined using L-fuculose and D-ribulose as the substrates

stoichiometry N [1]: 6
stoichiometry N [2]: 6
Molecule: L-fucose isomerase from Raoultella sp. KDH14 (RdFucI) (enzyme)

B1: RdFucI (Klebsiella planticola) (protein)
chain: MKRISLPKIGIRPVIDGRRMGVRESLEEQTMNMAKATAALISEKLRHASGAQIECVIADTCIAGMAESAACEEKFSSQNVGVTITVTPCWCYGSETIDMDPLRPKAIWGFNGTERPGAVYLAAALAAHSQKGIPAFSIYGHDVQDADDTTIPADVEEKLLRFARAGLAVASMKGKSYLSVGGVSMGIAGSIVDHNFFESWLGMKVQAVDMTELRRRIDQKIYDEVELEMALAWADKNFRYGEDQNAQHYKRDEEQSRAVLKESLLMAMCIRDMMQGNKKLAEKGLVEESLGYNAIAAGFQGQRHWTDQYPNGDTAEALLNSSFDWNGVREPFVVATENDSLNGVAMLMGHQLTGTAQVFADVRTYWSPDAVERVTGQPLTGLAEHGIIHLINSGSAALDGSCKQRDEEGKPTMKPHWEISQKEADACLAATEWCPAIHEYFRGGGYSSRFLTEGGVPFTMTRVNIIKGLGPVLQIAEGWSVELPKAMHDQLDARTNSTWPTTWFAPRLTGKGPFADVYSVMANWGANHGVLTIGHVGADFITLAAMLRIPVCMHNVEEGKIYRPSSWSAHGMDTEGQDYRACQNYGPLYKR
notes: N-terminal His6 tag (pET28a, NdeI/EcoRI), E. coli BL21(DE3); tag removal not mentioned; homohexamer
Km [3]: 13.7 ± 1.1 mM
kcat [3]: 138 ± 5.69 s⁻¹
kcat/Km [3]: 10100 ± 493 M⁻¹ s⁻¹
